# Experimental data reported in patent publication US20110236427.
# Experiments:
# [1] = test system: GST-NR2F6 fusion protein, full-length, S83A mutant
# [2] = test system: GST-NR2F6 fusion protein, full-length, S89A mutant
# [3] = test system: GST-NR2F6 fusion protein, full-length, wild-type
# Sequence of GST-NR2F6 fusion protein, full-length, wild-type (chain, as listed by the source): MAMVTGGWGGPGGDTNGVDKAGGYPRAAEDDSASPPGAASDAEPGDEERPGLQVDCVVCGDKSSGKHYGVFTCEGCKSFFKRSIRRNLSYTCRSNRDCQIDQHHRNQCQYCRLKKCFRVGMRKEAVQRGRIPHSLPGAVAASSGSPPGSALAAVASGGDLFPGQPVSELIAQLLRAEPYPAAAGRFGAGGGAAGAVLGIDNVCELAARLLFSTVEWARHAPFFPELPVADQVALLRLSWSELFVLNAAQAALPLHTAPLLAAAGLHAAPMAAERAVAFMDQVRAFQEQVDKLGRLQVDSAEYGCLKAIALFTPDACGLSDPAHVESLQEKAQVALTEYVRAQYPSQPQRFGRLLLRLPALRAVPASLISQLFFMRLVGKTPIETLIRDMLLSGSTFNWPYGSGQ
# Sequence of GST-NR2F6 fusion protein, full-length, S89A mutant (chain, as listed by the source S89A): as the sequence (chain, as listed by the source) above, with S89A counted along it
# Sequence of GST-NR2F6 fusion protein, full-length, S83A mutant (chain, as listed by the source S83A): as the sequence (chain, as listed by the source) above, with S83A counted along it
# Sequence of recombinant PKCtheta (Q04759 whole entry): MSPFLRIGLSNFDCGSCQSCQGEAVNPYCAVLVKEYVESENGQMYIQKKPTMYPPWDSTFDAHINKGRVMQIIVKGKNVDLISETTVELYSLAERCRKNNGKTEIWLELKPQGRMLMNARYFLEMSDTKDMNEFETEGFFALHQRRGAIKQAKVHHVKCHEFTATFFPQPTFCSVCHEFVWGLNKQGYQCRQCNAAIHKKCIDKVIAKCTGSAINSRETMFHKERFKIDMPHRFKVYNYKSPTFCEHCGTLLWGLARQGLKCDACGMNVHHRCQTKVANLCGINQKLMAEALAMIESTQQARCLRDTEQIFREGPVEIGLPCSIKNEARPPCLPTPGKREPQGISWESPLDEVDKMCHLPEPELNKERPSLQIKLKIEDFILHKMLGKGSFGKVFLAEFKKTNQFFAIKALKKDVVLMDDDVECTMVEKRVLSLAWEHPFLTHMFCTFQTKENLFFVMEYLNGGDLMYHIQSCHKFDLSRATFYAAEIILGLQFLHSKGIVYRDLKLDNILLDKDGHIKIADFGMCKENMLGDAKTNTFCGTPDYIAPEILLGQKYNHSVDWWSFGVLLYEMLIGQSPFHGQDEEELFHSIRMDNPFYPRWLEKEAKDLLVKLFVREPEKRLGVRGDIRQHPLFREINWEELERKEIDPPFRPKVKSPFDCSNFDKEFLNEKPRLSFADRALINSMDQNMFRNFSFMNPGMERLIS
Substance,"phosphorylation (32P incorporation), in vitro protein kinase assay [1]","phosphorylation (32P incorporation), in vitro protein kinase assay [2]","phosphorylation (32P incorporation), in vitro protein kinase assay [3]"
recombinant PKCalpha,This phosphorylation was lost after the predicted phosphorylation site at Ser-83 (but not at Ser-89) was mutated in the full-length NR2F6 protein,(but not at Ser-89),"PKCalpha, delta and theta (but not PKCzeta or PKA) were able to phosphorylate recombinant NR2F6 in vitro"
recombinant PKCtheta,This phosphorylation was lost after the predicted phosphorylation site at Ser-83 (but not at Ser-89) was mutated in the full-length NR2F6 protein,(but not at Ser-89),"PKCalpha, delta and theta (but not PKCzeta or PKA) were able to phosphorylate recombinant NR2F6 in vitro"
recombinant PKCdelta,This phosphorylation was lost after the predicted phosphorylation site at Ser-83 (but not at Ser-89) was mutated in the full-length NR2F6 protein,(but not at Ser-89),"PKCalpha, delta and theta (but not PKCzeta or PKA) were able to phosphorylate recombinant NR2F6 in vitro"
Protein kinase A (PKA),–,–,(but not PKCzeta or PKA)
